# Test results taken from patent US20250206809A1 (UNIVERSITY OF MASSACHUSETTS, published 2025).
# T1: CFA/I (adhesin CfaE) on ETEC strain H10407 (enterotoxigenic Escherichia coli strain …, UniProt P25734 1-360)
# T1 sequence (looked up): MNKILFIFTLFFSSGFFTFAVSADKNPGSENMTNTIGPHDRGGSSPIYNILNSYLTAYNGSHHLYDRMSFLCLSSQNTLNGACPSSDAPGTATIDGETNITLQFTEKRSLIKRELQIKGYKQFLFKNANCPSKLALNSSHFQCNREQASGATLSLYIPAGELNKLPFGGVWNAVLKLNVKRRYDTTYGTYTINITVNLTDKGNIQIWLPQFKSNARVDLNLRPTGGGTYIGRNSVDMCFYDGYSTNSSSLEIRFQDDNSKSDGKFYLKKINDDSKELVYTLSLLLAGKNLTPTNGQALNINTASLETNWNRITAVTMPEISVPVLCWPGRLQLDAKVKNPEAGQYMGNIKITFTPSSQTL
# T2: CS19
# T2 construct: not the CS19 on an ETEC strain; also called recombinant CS19; N-terminal adhesin domain of CsdD with MBP tag; not shown: MBP tag from vector pMAL-C5X, with any linker or donor-strand complement
# T2 chain: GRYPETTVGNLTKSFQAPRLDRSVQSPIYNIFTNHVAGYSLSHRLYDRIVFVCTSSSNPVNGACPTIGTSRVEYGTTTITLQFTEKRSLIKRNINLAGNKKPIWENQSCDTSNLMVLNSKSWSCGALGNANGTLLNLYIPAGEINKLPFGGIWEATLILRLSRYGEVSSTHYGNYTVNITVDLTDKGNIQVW
# T3: CS14
# T3 construct: not the CS14 on an ETEC strain; also called recombinant CS14; N-terminal adhesin domain of CsuD with MBP tag; not shown: MBP tag from vector pMAL-C5X, with any linker or donor-strand complement
# T3 chain: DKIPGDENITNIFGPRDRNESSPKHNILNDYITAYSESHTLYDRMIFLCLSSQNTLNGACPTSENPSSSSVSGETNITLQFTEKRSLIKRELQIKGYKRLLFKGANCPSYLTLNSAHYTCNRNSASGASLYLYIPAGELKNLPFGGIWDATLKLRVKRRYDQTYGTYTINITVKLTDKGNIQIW
# T4: MBP-CfaE-N (recombinant N-terminal adhesin domain of CfaE fused to an MBP tag) (enterotoxigenic Escherichia coli, UniProt P0AEX9 27-392 = MBP, Biotinylated for SPR; FITC or Alexa Fluor labelled for yeast flow cytometry.)
# T4 construct: It was used unlabelled in ELISA, 'biotinylated' on the chip in the SPR methods, and FITC/Alexa-labelled in yeast flow cytometry; also called recombinant N-terminal truncated CfaE protein; N-terminal truncation of CfaE; not shown: MBP tag and linker of vector pMAL-C5X, and the donor strand complement
# T4 sequence: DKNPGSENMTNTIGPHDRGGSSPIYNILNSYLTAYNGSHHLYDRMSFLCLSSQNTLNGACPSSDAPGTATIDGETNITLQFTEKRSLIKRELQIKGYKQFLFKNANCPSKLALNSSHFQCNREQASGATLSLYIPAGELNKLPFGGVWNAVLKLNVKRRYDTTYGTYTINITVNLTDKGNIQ
# B1: VHH antibody 1H4 (monomeric nanobody) (VHH)
# VHH: EVQLVESGGGLVQAGGSLRLSCAASSRTFNHYNIGWFRQAPGKEREFAAAITWNGRSTLYADSVKGRFTISRDNAKNTVYLQMNSLKPEDTAVYYCATLTTWEHKWEYNSQGQGTQVTVSS
# B2: VHH antibody 1D7 (monomeric nanobody) (VHH)
# VHH: EVQLVESGGGLVQAGGSLTLSCAASERTFSYYVMAWFRQAPGKEREFVAGISMSGDSTKYADSVKGRFTISRDNAENTGYLQMNGLKPEDTAVYYCAADRDIRGNFRSWGRGTQVTVSS
# B3: VHH antibody 2R23 (monomeric nanobody) (VHH)
# VHH: QVQLQESGGGLVQAGGSLRLSCAASGYIFWSYGYMGWYRQAPGKERELVATISRGGTTNYADSVKGRFTISRDNAKNTVYLQMNSLKPEDTAVYYCAAGRYAFGYFKYWGQGTQVTVSS
# notes: Yeast-library clone, expressed in the E. coli periplasm
# B4: VHH antibody 2R215 (monomeric nanobody) (VHH)
# VHH: QVQLQESGGGLVQAGGSLRLSCAASGNIFQDAEMGWYRQAPGKEREFVATIAYGGNTNYADSVKGRFTISRDNAKNTVYLQMNSLKPEDTAVYYCAVYTGVYYDRTTGGYVAFEYWGQGTQVTVSS
# notes: Yeast-library clone, expressed in the E. coli periplasm and purified by Ni-NTA; also called monomeric 2R215; monomeric VHH 2R215
# Biological target: T1, CFA/I (adhesin CfaE) on ETEC strain …
# Assay: cell-based or functional assay
row,Binder,MRHA IC100 [µg/mL]
1,B1,200
2,B2,100
3,B3,50
4,B4,25

# Biological target: CS19 on an ETEC strain (enterotoxigenic Escherichia coli)
# Assay: cell-based or functional assay
row,Binder,MRHA IC100 [µg/mL]
1,B1,100
2,B2,100
3,B3,200
4,B4,200

# Biological target: CS4 on an ETEC strain (enterotoxigenic Escherichia coli)
# Assay: cell-based or functional assay
row,Binder,MRHA IC100 [µg/mL]
1,B1,25
2,B2,200
3,B3,25
4,B4,100

# Biological target: CS1 on an ETEC strain (enterotoxigenic Escherichia coli)
# Assay: cell-based or functional assay
row,Binder,MRHA IC100 [µg/mL]
1,B1,100
2,B2,50
3,B3,200
4,B4,200

# Biological target: CS5 on an ETEC strain (enterotoxigenic Escherichia coli)
# Assay: cell-based or functional assay
row,Binder,MRHA IC100 [µg/mL]
1,B1,3.12
2,B2,3.12
3,B3,12.5
4,B4,6.25

# Biological target: CS14 on an ETEC strain (enterotoxigenic Escherichia coli)
# Assay: cell-based or functional assay
row,Binder,MRHA IC100 [µg/mL]
1,B1,100
2,B2,100
3,B3,25
4,B4,200

# Biological target: CS3 on an ETEC strain (enterotoxigenic Escherichia coli)
# Assay: cell-based or functional assay
row,Binder,MRHA IC100 [µg/mL]
1,B1,100
2,B2,50
3,B3,100
4,B4,100

# Biological target: CS2 on an ETEC strain (enterotoxigenic Escherichia coli)
# Assay: cell-based or functional assay
row,Binder,MRHA IC100 [µg/mL]
1,B1,100
2,B2,50
3,B3,200
4,B4,6.25

# Biological target: CS6 on an ETEC strain (enterotoxigenic Escherichia coli)
# Assay: cell-based or functional assay
row,Binder,MRHA IC100 [µg/mL]
1,B1,25
2,B2,12.5
3,B3,12.5
4,B4,25

# Biological target: CS17 on an ETEC strain (enterotoxigenic Escherichia coli)
# Assay: cell-based or functional assay
row,Binder,MRHA IC100 [µg/mL]
1,B1,6.25
2,B2,6.25
3,B3,6.25
4,B4,6.25

# Biological target: CS21 on an ETEC strain (enterotoxigenic Escherichia coli)
# Assay: cell-based or functional assay
row,Binder,MRHA IC100 [µg/mL]
1,B1,25
2,B2,25
3,B3,25
4,B4,25

# Biological target: T2, CS19
# Assay: ELISA: plate coated with the recombinant antigen, purified VHH titrated (y axis printed as absorbance at 405, the text says OD450)
row,Binder,binding result
1,B4,binds

# Biological target: T3, CS14
# Assay: as above
row,Binder,binding result
1,B3,binds

# Biological target: T4, MBP-CfaE-N (recombinant N-terminal …)
# Assay: SPR, Biacore T200, CfaE on CM5 chip, VHH injected, 25 °C, 1:1 model
# Description: Surface plasmon resonance (SPR) technology was used to assess the binding properties of the VHH molecules (BIACORE® T200 instrument; GE Healthcare). Biotinylated CfaE protein was coupled to a CM5 sensor chip using standard amine coupling chemistry. Various concentrations of lead nanobodies ranging from 1 to 10 ug were injected over the chip surface at a flow rate of 30 I/min. An association step of 60 s was followed by a dissociation step of 180 s, and the final dissociation step was 600 s. Regeneration of the sensor chip surface was accomplished using 3 M MgCl₂. Experiments were performed at 25° C. Kinetic data were analyzed using BIACORE® T200 Evaluation (version 3.0) software and a 1:1 binding model.
Binder,Kd [nM],koff [s⁻¹],kon [M⁻¹ s⁻¹]
B2,17.7,0.0311,1.75e+06
B3,9.06,64.6,7.13e+09
